Results reported in the MegaScale stability set (Tsuboyama et al. 2023).

B1: 6NMW (parent)
chain: QGDIVVALYPYDGIHPDDLSFKKGEKMKVLEEHGEWWKAKSLLTKKEGFIPSNYVAKLN

Variants of: B1
Assay: folding stability dG (cDNA display proteolysis); higher = more stable
Settings: PBS, room temperature

Variant	folding stability dG [kcal/mol]
L42Q	1.32
L42N	0.819
Y54N	1.04
E35V	3.94
F49N	3.4
P16F	2.73
A7F	-0.602
M27H	-0.396
W37D	0.168
Y9V	2.5
N53W	4.69
K23E	2.88
E35N	4.01
K23V	3.39
G13F	0.38
D17V	2.23
N53D	3.14
G34F	1.15
N53A	4.07
P51V	-0.225
G24L	1.02
T44V	0.057
I4L	3
F49E	0.945

Variant	folding stability dG [kcal/mol]
I50M	0.656
L30W	1.5
S52L	2
Q1C	4.65
K23W	2.06
E31L	2.67
S41N	1.9
D12N	3.98
Y9W	3.66
H15C	4.24
A56C	4.6
P10A	4.23
Y9L	3.06
G34H	1.67
V55M	1.6
D17I	2.2
T44I	-0.332
P51R	1.7
L30Y	2.27
E47S	3.47
V29Y	0.219
W36A	1.68
E25H	0.959
L19M	2.12

Variant	folding stability dG [kcal/mol]
T44K	0.416
A56R	4.18
D3A	4.25
L8N	1.23
G24N	2.19
F49M	4.22
G34E	1.86
K46D	2.47
W36T	2.87
E25R	0.331
K46W	1.73
L19I	1.46
G13T	1.74
L58D	2.77
K26M	4.51
V29A	0.496
S52W	3.1
K40Y	3.79
I50W	-0.594
N59E	3.86
K57Y	4.22
V5I	2.37
K46F	2.48
V6S	1.15

Variant	folding stability dG [kcal/mol]
S52M	3.52
K57T	2.85
G13Q	2.01
D3F	4.91
Y11A	-0.375
Q1K	4.1
G24M	1.07
K26E	2.52
S52V	3.02
G2P	2.98
D18M	3.67
V55T	1.68
E25V	-0.121
I14G	2.9
L8Y	1.02
L42F	2.83
G24E	1.16
N59H	3.98
A39L	1.97
N53R	4.09
K38R	4.06
L19A	-0.055
W37P	1.7
L43M	3.25

Variant	folding stability dG [kcal/mol]
L30N	0.519
F49R	3.83
K45D	4.09
L42K	0.463
K45L	4.49
D3M	4.59
K23M	2.89
G13K	2.6
V29S	-0.702
W36I	3.52
V5S	0.271
H33C	4.43
S52P	3.65
L42W	1.06
Y54T	1.16
S20I	2.09
K57S	2.94
G24T	0.282
T44M	0.443
Y9S	1.95
W37A	2.24
E47W	2.14
G48K	0.081
I4Q	1.21

Variant	folding stability dG [kcal/mol]
K22A	3.17
G34S	2
Y11W	4.27
K23S	2.34
G24K	0.476
H33Y	3.6
Y54M	3.17
L42I	2.51
K26F	4.75
K45W	4.01
K38I	3.44
H15A	3.22
D17Y	3.92
P51T	-0.429
P16Q	3.08
I4W	2.71
G34D	1.96
W36L	2.85
Y54Q	1.44
P10N	4.84
D12R	4.19
V29M	1.93
A7E	0.11
L30D	0.53

Variant	folding stability dG [kcal/mol]
E31Q	3.11
D17S	3.63
K40T	2.76
L43S	3.38
P51Y	1.26
S20Q	2.27
Y11N	0.567
A56W	2.92
G13P	2.3
G34M	1.59
E32R	4.29
K45H	4.6
W37I	3.96
G2W	3.93
A56T	3.8
G13L	0.825
K57N	2.44
L43C	3.7
Q1G	3.67
K40G	1.1
I4Y	2.98
P51S	1.19
G34P	1.5
A56V	4.56

Variant	folding stability dG [kcal/mol]
K28Y	4.2
K22C	3.28
V5E	-0.712
Y54F	3.51
F49S	1.94
K23R	3.33
K23D	1.3
N53L	3
H33Q	3.06
M27Q	-0.878
Q1P	3.96
V6E	2.18
L58F	3.26
S41D	0.362
W36D	0.269
N59I	4
K38Q	2.39
L58R	1.73
N59M	3.64
E32L	4.21
K28H	3.02
K57R	4.37
V6T	2.18
H15M	2.85

Variant	folding stability dG [kcal/mol]
P10R	4.08
G34Q	1.74
L43F	3.03
G34V	1.41
I50A	0.132
S20A	2.64
E35R	3.59
A39W	-0.54
N53Y	3.12
V55W	0.199
E32Q	4.09
D17K	3.5
S20G	2.01
H33R	3.41
G13V	1.14
L58E	2.77
L43Q	2.88
K26Q	3.56
E32I	4.6
Y54P	-0.857
L43H	3.1
D12M	3.84
G48Y	0.585
G48W	-0.877

Variant	folding stability dG [kcal/mol]
V6N	0.282
G2V	3.15
D17R	4.21
Q1A	3.87
P16M	2.81
Y9R	4.07
W37G	-0.016
E25Q	0.918
L30E	1.21
H15N	3.65
I14V	3.97
K28G	1.31
V29T	0.988
P51D	1.08
L58V	3.89
L30S	1.5
T44F	0.599
G2E	3.29
L42T	1.47
N59D	3.82
E25N	0.344
E31R	2.56
H15E	2.54
Y11L	0.851

Variant	folding stability dG [kcal/mol]
L8Q	1.62
F21C	0.758
G48H	-0.819
E25G	-0.389
P16W	2.79
K23L	2.79
P16C	3.56
D12S	3.78
K22F	2.5
W37K	3.8
L58S	2.55
K57F	3.96
E31P	-0.549
T44G	0.839
S41F	-0.464
S52R	4.29
V55L	1.18
L42M	3.09
N59T	3.58
D17L	3.6
E47A	2.77
H15W	3.39
W36C	3.06
L8H	1.06

Variant	folding stability dG [kcal/mol]
S41K	1.64
K45M	4.29
D12H	4.08
W36V	3.3
K23T	2.75
K26D	0.255
K40M	4.1
K57C	3
L19V	0.435
E25I	-0.618
K38C	3.63
I14H	3.13
Y54G	0.76
G2Y	3.95
L8K	2.3
L42D	0.832
M27V	0.125
N53P	1.68
Y9I	2.72
D3K	4.12
K40V	4.24
E32K	4.72
G34K	1.84
E47F	2.36

Variant	folding stability dG [kcal/mol]
D18T	3.97
Y54I	2.17
K22W	1.45
I4S	0.94
E31T	2.69
P51M	1.59
E31F	3.14
F49C	3.83
V29P	0.224
Y11F	3.93
W36Q	2.51
D3E	3.77
S52H	2.96
S52F	2.85
S20E	1.75
L8M	2.78
Y11V	0.147
H33L	3.41
G48S	-0.544
K57I	3.23
E31H	2.63
E32H	3.54
E35Y	4.96
F49H	1.88

Variant	folding stability dG [kcal/mol]
A7T	1.07
E31Y	3.07
K23H	1.85
L30F	2.37
Y54E	0.003
E35H	4.61
A7L	-0.675
L30K	0.883
F49V	2.3
K40C	3.71
N59L	3.64
F49P	-0.719
Y54L	3.67
G13S	3.39
P51H	1.83
K40L	3.84
L19N	-0.23
S41L	1.15
F21M	1.22
Y54R	2.74
P10M	2.75
S52Q	3.31
